{"source": "paper PMC10975748", "target": "voltage-gated potassium channel Kv1.3 (UniProt P22001)", "sequence (P22001 whole entry)": "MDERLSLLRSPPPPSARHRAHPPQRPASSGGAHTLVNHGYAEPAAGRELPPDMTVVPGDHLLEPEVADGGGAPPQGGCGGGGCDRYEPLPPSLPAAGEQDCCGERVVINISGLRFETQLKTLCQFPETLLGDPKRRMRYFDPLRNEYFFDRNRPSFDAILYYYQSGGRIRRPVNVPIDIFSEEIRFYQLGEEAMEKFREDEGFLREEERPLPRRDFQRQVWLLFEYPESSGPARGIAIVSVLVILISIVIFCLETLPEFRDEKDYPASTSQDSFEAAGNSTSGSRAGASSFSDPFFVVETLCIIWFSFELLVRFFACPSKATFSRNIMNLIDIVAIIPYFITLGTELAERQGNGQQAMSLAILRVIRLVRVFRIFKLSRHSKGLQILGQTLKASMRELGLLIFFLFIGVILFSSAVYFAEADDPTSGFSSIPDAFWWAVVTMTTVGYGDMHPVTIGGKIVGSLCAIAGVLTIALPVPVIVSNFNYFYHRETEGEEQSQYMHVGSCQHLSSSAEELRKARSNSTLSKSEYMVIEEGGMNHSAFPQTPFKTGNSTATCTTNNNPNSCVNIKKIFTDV"}
{"substance": "mCherry-Vm24", "values": [{"measurement": "Kd from electrophysiological assays", "value": 275, "unit": "pM"}]}
